# Reference: the supplement of paper PMC9112550, “Optimization of the antimicrobial peptide Bac7 by deep mutational scanning” (BMC Biology, 2022)
# Test system: Escherichia coli TOP10
# Experiment: shrunken log2 fold change of peptide-encoding DNA abundance (4.5 h post-induction vs induction); higher = less antimicrobial activity (less host growth inhibition)
# Conditions: time post-induction: 4.5 h; library: site-saturation at positions 5, 18, 19, 20
# 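Further: peptides expressed intracellularly from a pBAD plasmid library in pooled LB shake-flask culture, induced with 0.3% L-arabinose, DNA abundance read by NGS, three biological replicates, DESeq2 with apeglm shrinkage.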
row,Sequence,shrunken log2 fold change
1,RRIRWRPPRLPRPRPRPKFSPRP,0.346
2,RRIRWRPPRLPRPRPRPKGNPRP,0.514
3,RRIRWRPPRLPRPRPRPKKHPRP,0.293
4,RRIRWRPPRLPRPRPRPKLEPRP,0.808
5,RRIRWRPPRLPRPRPRPKLTPRP,0.475
6,RRIRWRPPRLPRPRPRPKLVPRP,0.00348
7,RRIRWRPPRLPRPRPRPKNCPRP,-0.122
8,RRIRWRPPRLPRPRPRPKPDPRP,0.115
9,RRIRWRPPRLPRPRPRPKPLPRP,0.375
10,RRIRWRPPRLPRPRPRPKQGPRP,0.125
11,RRIRWRPPRLPRPRPRPKQWPRP,0.155
12,RRIRWRPPRLPRPRPRPKSNPRP,-0.164
13,RRIRWRPPRLPRPRPRPKSPPRP,0.819
14,RRIRWRPPRLPRPRPRPKTCPRP,0.174
15,RRIRWRPPRLPRPRPRPKTDPRP,0.204
16,RRIRWRPPRLPRPRPRPKWKPRP,0.401
17,RRIRWRPPRLPRPRPRPKWNPRP,-0.095
18,RRIRWRPPRLPRPRPRPLANPRP,0.552
19,RRIRWRPPRLPRPRPRPLDIPRP,1.52
20,RRIRWRPPRLPRPRPRPLDSPRP,0.0674
21,RRIRWRPPRLPRPRPRPLEQPRP,0.392
22,RRIRWRPPRLPRPRPRPLFFPRP,-0.00386

row,Sequence,shrunken log2 fold change
1,RRIRWRPPRLPRPRPRPLFRPRP,-0.0807
2,RRIRWRPPRLPRPRPRPLGHPRP,0.035
3,RRIRWRPPRLPRPRPRPLGLPRP,0.116
4,RRIRWRPPRLPRPRPRPLHRPRP,0.0218
5,RRIRWRPPRLPRPRPRPLKYPRP,-0.384
6,RRIRWRPPRLPRPRPRPLLYPRP,0.0998
7,RRIRWRPPRLPRPRPRPLMQPRP,0.217
8,RRIRWRPPRLPRPRPRPLMRPRP,0.858
9,RRIRWRPPRLPRPRPRPLMTPRP,0.47
10,RRIRWRPPRLPRPRPRPLNKPRP,-0.397
11,RRIRWRPPRLPRPRPRPLNNPRP,-0.323
12,RRIRWRPPRLPRPRPRPLNQPRP,-0.0739
13,RRIRWRPPRLPRPRPRPLQDPRP,-0.0523
14,RRIRWRPPRLPRPRPRPLQNPRP,-0.11
15,RRIRWRPPRLPRPRPRPLQVPRP,-0.125
16,RRIRWRPPRLPRPRPRPLSCPRP,0.154
17,RRIRWRPPRLPRPRPRPLSEPRP,0.104
18,RRIRWRPPRLPRPRPRPLVVPRP,0.173
19,RRIRWRPPRLPRPRPRPLWEPRP,0.0357
20,RRIRWRPPRLPRPRPRPMAFPRP,-0.0177
21,RRIRWRPPRLPRPRPRPMAGPRP,0.0179
22,RRIRWRPPRLPRPRPRPMCFPRP,0.0876

row,Sequence,shrunken log2 fold change
1,RRIRWRPPRLPRPRPRPMFEPRP,-0.0796
2,RRIRWRPPRLPRPRPRPMFLPRP,-0.182
3,RRIRWRPPRLPRPRPRPMFYPRP,-0.395
4,RRIRWRPPRLPRPRPRPMGCPRP,0.117
5,RRIRWRPPRLPRPRPRPMIIPRP,-0.0264
6,RRIRWRPPRLPRPRPRPMLAPRP,1
7,RRIRWRPPRLPRPRPRPMLKPRP,-0.109
8,RRIRWRPPRLPRPRPRPMLTPRP,0.391
9,RRIRWRPPRLPRPRPRPMMRPRP,1.08
10,RRIRWRPPRLPRPRPRPMMSPRP,0.19
11,RRIRWRPPRLPRPRPRPMNHPRP,-0.426
12,RRIRWRPPRLPRPRPRPMPIPRP,0.0953
13,RRIRWRPPRLPRPRPRPMQFPRP,0.104
14,RRIRWRPPRLPRPRPRPMQHPRP,0.596
15,RRIRWRPPRLPRPRPRPMQSPRP,0.185
16,RRIRWRPPRLPRPRPRPMRRPRP,0.481
17,RRIRWRPPRLPRPRPRPMRWPRP,0.648
18,RRIRWRPPRLPRPRPRPMSDPRP,0.0237
19,RRIRWRPPRLPRPRPRPMSPPRP,0.000834
20,RRIRWRPPRLPRPRPRPMTTPRP,0.1
21,RRIRWRPPRLPRPRPRPMVAPRP,0.457
22,RRIRWRPPRLPRPRPRPMVCPRP,0.199

row,Sequence,shrunken log2 fold change
1,RRIRWRPPRLPRPRPRPMVRPRP,0.0171
2,RRIRWRPPRLPRPRPRPMWTPRP,0.171
3,RRIRWRPPRLPRPRPRPMYCPRP,0.0174
4,RRIRWRPPRLPRPRPRPMYKPRP,-0.0607
5,RRIRWRPPRLPRPRPRPMYNPRP,-0.387
6,RRIRWRPPRLPRPRPRPNAAPRP,0.81
7,RRIRWRPPRLPRPRPRPNCFPRP,-0.0571
8,RRIRWRPPRLPRPRPRPNCRPRP,0.0177
9,RRIRWRPPRLPRPRPRPNDFPRP,-0.0161
10,RRIRWRPPRLPRPRPRPNDMPRP,0.199
11,RRIRWRPPRLPRPRPRPNFVPRP,0.292
12,RRIRWRPPRLPRPRPRPNGSPRP,0.0647
13,RRIRWRPPRLPRPRPRPNIAPRP,-0.121
14,RRIRWRPPRLPRPRPRPNIHPRP,-0.392
15,RRIRWRPPRLPRPRPRPNIRPRP,-0.135
16,RRIRWRPPRLPRPRPRPNKHPRP,-0.281
17,RRIRWRPPRLPRPRPRPNKPPRP,-0.0749
18,RRIRWRPPRLPRPRPRPNMWPRP,0.0493
19,RRIRWRPPRLPRPRPRPNPGPRP,0.108
20,RRIRWRPPRLPRPRPRPNPVPRP,-0.266
21,RRIRWRPPRLPRPRPRPNQDPRP,0.0957
22,RRIRWRPPRLPRPRPRPNQGPRP,0.0374

row,Sequence,shrunken log2 fold change
1,RRIRWRPPRLPRPRPRPNQMPRP,-0.0159
2,RRIRWRPPRLPRPRPRPNRHPRP,0.0506
3,RRIRWRPPRLPRPRPRPNRRPRP,0.191
4,RRIRWRPPRLPRPRPRPNTKPRP,-0.187
5,RRIRWRPPRLPRPRPRPNVIPRP,-0.161
6,RRIRWRPPRLPRPRPRPNVKPRP,-0.278
7,RRIRWRPPRLPRPRPRPNWYPRP,-0.372
8,RRIRWRPPRLPRPRPRPPATPRP,1.06
9,RRIRWRPPRLPRPRPRPPCIPRP,0.0939
10,RRIRWRPPRLPRPRPRPPDDPRP,0.847
11,RRIRWRPPRLPRPRPRPPDHPRP,0.594
12,RRIRWRPPRLPRPRPRPPDSPRP,0.0564
13,RRIRWRPPRLPRPRPRPPEDPRP,0.235
14,RRIRWRPPRLPRPRPRPPEHPRP,0.544
15,RRIRWRPPRLPRPRPRPPFDPRP,0.445
16,RRIRWRPPRLPRPRPRPPFEPRP,0.765
17,RRIRWRPPRLPRPRPRPPFHPRP,0.0947
18,RRIRWRPPRLPRPRPRPPFRPRP,0.632
19,RRIRWRPPRLPRPRPRPPFWPRP,0.836
20,RRIRWRPPRLPRPRPRPPGPPRP,0.599
21,RRIRWRPPRLPRPRPRPPIPPRP,0.0875
